The values that follow come from PMC12397386, “Structural basis of Fusobacterium nucleatum adhesin Fap2 interaction with receptors on cancer and immune cells” (Nature Communications, 2025).

The target in assay [1] is hTIGIT-ECD-Fc (human TIGIT extracellular domain with C-terminal Fc tag, Acro Biosystems #TIT-H5254) (human) (UniProt Q495A1). The experiment in a line: SPR; Biacore 3000; hTIGIT-ECD-Fc immobilised on CM5 chip (3220 RU); Fap2-ECD injected at 52.5 to 368 nM; 25 mM HEPES-NaOH pH 7.5, 50 mM NaCl, 0.005% Tween-20; 25 °C; global 1:1 Langmuir fit.
The target in a further assay is TIGIT (Homo sapiens) (UniProt Q495A1). Particulars: cited from earlier work.
In assay [2] the target is fibronectin (Homo sapiens) (UniProt P02751). The note with it: cited from earlier work.
Sequence of fibronectin (Homo sapiens) (P02751 32-2477): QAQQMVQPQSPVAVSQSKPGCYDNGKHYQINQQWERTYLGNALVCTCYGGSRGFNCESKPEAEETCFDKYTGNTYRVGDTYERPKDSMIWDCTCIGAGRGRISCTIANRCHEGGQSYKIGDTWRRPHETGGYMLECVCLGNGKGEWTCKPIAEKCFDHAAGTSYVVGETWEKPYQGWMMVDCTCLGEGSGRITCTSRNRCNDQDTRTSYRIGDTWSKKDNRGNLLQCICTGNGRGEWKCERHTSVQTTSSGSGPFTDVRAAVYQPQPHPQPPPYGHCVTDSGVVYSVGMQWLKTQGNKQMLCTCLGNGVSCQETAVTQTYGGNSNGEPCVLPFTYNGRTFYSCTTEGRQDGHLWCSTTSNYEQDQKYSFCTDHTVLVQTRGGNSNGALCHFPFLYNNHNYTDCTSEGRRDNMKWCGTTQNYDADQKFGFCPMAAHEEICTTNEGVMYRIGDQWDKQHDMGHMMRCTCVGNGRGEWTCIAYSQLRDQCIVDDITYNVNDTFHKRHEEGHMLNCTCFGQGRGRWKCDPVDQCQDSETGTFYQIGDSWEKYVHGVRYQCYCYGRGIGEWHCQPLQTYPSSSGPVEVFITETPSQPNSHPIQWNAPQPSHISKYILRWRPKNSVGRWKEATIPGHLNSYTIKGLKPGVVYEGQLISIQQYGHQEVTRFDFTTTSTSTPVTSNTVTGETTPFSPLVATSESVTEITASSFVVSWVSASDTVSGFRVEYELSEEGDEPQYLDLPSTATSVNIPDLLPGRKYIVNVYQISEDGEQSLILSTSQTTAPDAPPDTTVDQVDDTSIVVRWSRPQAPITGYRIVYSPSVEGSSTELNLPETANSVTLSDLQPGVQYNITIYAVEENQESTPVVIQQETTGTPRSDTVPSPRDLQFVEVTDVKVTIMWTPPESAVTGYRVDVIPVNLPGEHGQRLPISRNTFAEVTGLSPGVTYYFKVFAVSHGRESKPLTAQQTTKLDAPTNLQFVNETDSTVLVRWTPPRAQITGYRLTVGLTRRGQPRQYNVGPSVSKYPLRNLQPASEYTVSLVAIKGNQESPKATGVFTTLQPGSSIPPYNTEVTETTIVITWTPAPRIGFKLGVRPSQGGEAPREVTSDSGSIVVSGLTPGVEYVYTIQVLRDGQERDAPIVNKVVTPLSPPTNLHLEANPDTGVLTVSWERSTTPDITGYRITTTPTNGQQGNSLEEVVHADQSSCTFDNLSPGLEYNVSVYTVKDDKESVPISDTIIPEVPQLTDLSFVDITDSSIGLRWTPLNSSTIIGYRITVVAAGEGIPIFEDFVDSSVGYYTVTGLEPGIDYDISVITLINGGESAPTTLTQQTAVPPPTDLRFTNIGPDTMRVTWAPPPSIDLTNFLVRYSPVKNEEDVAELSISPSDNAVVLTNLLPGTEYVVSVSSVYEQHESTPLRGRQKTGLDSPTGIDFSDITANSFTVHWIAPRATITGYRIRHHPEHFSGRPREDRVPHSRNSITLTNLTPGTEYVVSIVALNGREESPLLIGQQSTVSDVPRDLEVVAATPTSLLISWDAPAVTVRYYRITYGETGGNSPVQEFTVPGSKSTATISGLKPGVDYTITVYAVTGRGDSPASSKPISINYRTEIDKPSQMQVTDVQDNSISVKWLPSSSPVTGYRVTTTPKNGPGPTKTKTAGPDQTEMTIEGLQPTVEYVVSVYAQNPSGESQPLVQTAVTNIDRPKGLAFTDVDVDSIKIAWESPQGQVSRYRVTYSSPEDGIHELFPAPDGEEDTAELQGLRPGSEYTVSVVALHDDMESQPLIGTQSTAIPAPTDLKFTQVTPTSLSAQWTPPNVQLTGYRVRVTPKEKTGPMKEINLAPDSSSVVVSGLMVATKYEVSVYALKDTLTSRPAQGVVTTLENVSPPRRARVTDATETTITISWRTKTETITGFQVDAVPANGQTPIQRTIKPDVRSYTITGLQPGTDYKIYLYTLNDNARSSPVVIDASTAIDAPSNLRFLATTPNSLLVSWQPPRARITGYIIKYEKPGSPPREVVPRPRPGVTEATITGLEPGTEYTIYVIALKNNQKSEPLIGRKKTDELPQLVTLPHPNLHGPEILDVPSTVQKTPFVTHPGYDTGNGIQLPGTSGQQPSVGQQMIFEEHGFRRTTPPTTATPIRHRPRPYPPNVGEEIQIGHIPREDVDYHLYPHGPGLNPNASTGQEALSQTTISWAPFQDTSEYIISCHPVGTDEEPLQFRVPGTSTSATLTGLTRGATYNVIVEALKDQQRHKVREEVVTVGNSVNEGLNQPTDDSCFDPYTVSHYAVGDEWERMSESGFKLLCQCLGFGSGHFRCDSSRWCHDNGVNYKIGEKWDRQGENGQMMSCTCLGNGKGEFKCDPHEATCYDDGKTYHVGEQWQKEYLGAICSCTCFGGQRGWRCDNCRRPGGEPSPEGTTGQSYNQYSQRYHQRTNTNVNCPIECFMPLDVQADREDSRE
The target of assay [3] is T1, Fap2 extracellular domain (Fap2-ECD), residues 42-3271, purified after release from the AIDA autotransporter (Fusobacterium nucleatum subsp. …, UniProt A0ABV3Y820 42-3271).
T1 construct: Linker GSA before and SAG after the His8 tag; what is left of the TEV site after cleavage follows it; Gene codon-optimised for E. coli; also called Fap2 WT; recombinant Fap2-ECD; not shown: His8, C-terminal, kept
Nature of the assay: SPR; Biacore 3000; hTIGIT-ECD-Fc amine-coupled to a CM5 chip (3220 RU); Fap2-ECD injected at 52.5-368 nM; 25 mM HEPES-NaOH pH 7.5, 50 mM NaCl, 0.005% Tween-20; 25 °C; 1:1 Langmuir global fit. The note with it: both partners purified. In general terms: Surface plasmon resonance follows binding to a sensor surface in real time, without labels.

For orientation: Kd means the concentration at which binding is half-saturated. In general, koff refers to the first-order rate constant of dissociation.

In assay [1], “Fap2 extracellular domain (Fap2-ECD, residues 42-3271) from Fusobacterium nucleatum subsp. nucleatum ATCC23726, wild type (domain or fragment)” had a Ka of 1.72e+06 M⁻¹, a Kd of 583 nM and a koff of 0.0308 s⁻¹.
Take Nectin-2 (from UniProt Q92692): in the assay with TIGIT (Homo sapiens), the dissociation constant Kd is 6000 nM.
As for lipoprotein P4 (from UniProt P26093), in assay [2], the equilibrium dissociation constant (Kd) was 10 nM.

B1: human TIGIT extracellular domain with C-terminal Fc tag (Acro Biosystems #TIT-H5254) (Fc fusion, UniProt Q495A1 22-141, looked up)
chain: MMTGTIETTGNISAEKGGSIILQCHLSSTTAQVTQVNWEQQDQLLAICNADLGWHISPSFKDRVAPGPGLGLTLQSLTVNDTGEYFCIYHTYPDGTYTGRIFLEVLESSVAEHGARFQIP
notes: TIGIT, human, extracellular domain; The text calls it glycosylated hTIGIT-ECD in the SPR; also called hTIGIT-ECD-Fc; hTIGIT-Fc; source: bought: Acro Biosystems, #TIT-H5254; not shown: Fc, C-terminal, kept
B1: in assay [3], the Kd was around 600 nM and the dissociation rate constant (koff) turned out to be 0.03 ± 0.001 s⁻¹.
